Reference: patent US20210292393A1 (published 2021)

B1: antibody 341 (antibody, V domains shown)
VH: QLQLQESGPGLVKPSETLSLTCTVSGGSISSSSYYWGWIRQPPGKGLEWIGSIYYSGSTYYNPSLKSRVTISVDTSKNQFSLKLSSVTAADTAVYYCARRPLRYFDWLTNFDYWGQGTLVTVSS
VL: EIVLTQSPATLSLSPGERATLSCRASQSVSSYLAWYQQKPGQAPRLLIYDASNRATGIPARFSGSGSGTDFTLTISSLEPEDFAVYYCQQRSNWPITFGQGTRLEIK
B2: antibody 395 (antibody, V domains shown)
VH: QVQLVQSGSELKKPGASVKLSCQASGYTFSNHAMNWVRQAPGQGLEWMGWINTNTGNPTYAQGFTGRFVFSLDTSVGTAYLHISSLKAEDTAFYYCARASARPGVATNLDFWGQGTLVVVSS
VL: DIQMTQSPSSLSASVGDRVTITCRTSQNIDNYLNWYQQKPGKAPNLLIYAASRLHSGVPSRFSGSGSGTDFTLIISSLQPEDLATYYCQQSYSNPLTFGPGTKVDIR
B3: antibody 405 (antibody, V domains shown)
VH: not shown
VL: QSALTQPRSVSGSPGQSVTISCTGTSSDVGGYNYVSWYQQHPGKAPKLMIYDVSKRPSGVPDRFSGSKSGNTASLTISGLQAEDEADYYCCSYAGSYNVVFGGGTKLTVL
B4: antibody 409 (antibody, V domains shown)
VH: QVTLRESGPALVKPTQTLTLTCTFSGFSLSTSGMCVSWIRQPPGKALEWLALIDWDDDKYYSTSLKTRLTISKDTSKNQVVLTMTNMDPVDTATYYCARTTYYYVSGRRAEFDPWGQGTLVTVSS
VL: NFMLTQPHSVSESPGKTVTISCTGSSGSIASNYVQWYQQRPGSAPTTVIYEDNQRPSGVPDRFSGSIDSSSNSASLTISGLKTEDEADYYCQSYDSSNQGVFGGGTKLTVL
B5: antibody 385 (antibody, V domains shown)
VH: QVQLVESGGGVVQPGRSLRLSCAASGFTFSSYAIHWVRQAPGKGLEWVAVISYDGSNKYYADSVKGRFTISRDNSKNTLYLQMNSLRAEDTAVYYCARPRSGSYWGAFDIWGQGTMVTVSS
VL: QSVLTQPPSVSGAPGQRVTISCTGSSSNIGARYDVHWYQQLPGTAPKLLIYGNSNRPSGVPDRFSGSKSGTSASLAITGLQAEDEADYYCQSYDSSLRGVFGGGTKLTVL
B6: antibody 467 (antibody, V domains shown)
VH: QVQLVQSGAEVKKPGASVKVSCKASGYTFISYGISWVRQAPGQGLEWMGWISAYNGNTNYAQKLQGRVTMTTDTSTSTAYMELRSLRSDDTAVYYCARGLWPGYYYGSGSYSAFHIWGQGTMVTVSS
VL: QSALTQPPSASGSPGQSVSISCTGTSSDVGGYNYVSWYQQHPGKAPKLMIYEVSKRPSGVPDRFSGSKSGNTASLTVSGLQAEDEADYYCSSYAGSNKVFGGGTKLTVL
B7: antibody 508 (antibody, V domains shown)
VH: EVQLVQSGAEVKKPGATVKISCKVSGYTFTDYYMHWVQQAPGKGLEWMGLVDPEDGETIYAEKFQGRVTITADTSTDTAYMELSSLRSEDTAVYYCAVENMITFGGVIVKRGAFDIWGQGTMVTVSS
VL: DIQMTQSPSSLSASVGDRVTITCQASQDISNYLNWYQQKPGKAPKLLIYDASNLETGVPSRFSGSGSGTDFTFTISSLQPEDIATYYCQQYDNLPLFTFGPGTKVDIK
B8: antibody 482 (antibody, V domains shown)
VH: EVQLVESGGGLVQPGGSLRLSCAASGFTFSSYWMTWVRQAPGKGLEWVANIKQDGSEKYYVDSVKGRFTISRDNAKNSLYLQMNSLRAEDTAVYYCARGVGSWYLGFDYWGQGTLVTVSS
VL: NFMLTQPHSVSESPGKTVTISCTGSSGSIASNYVQWYQQRPGSAPTTVIYEDNQRPSGVPDRFSGSIDSSSNSASLTISGLKTEDEADYYCQSYDGSSYVFGTGTKVTVL
B9: antibody 501 (antibody, V domains shown)
VH: QVQLVQSGAEVKKPGASVKVSCKASGYTFTSYYVHWVRQAPGQSLEWMGVISPSTGSTTYAQNFQGRVTMTRDTSTTTVYMELSSLRSEDTAVYYCARDDYYDSTRYFDLWGRGTLVTVSS
VL: QSALTQPASVSGSPGQSISFSCTGTSSDIGAYNYVSWYQQHPGRAPKLMIYDVGNRPSGVSNRFSGSKSGNTASLTISGLQAEDEADYYCSSYTSSSTQVFGTGTKVTVL
B10: antibody 465 (antibody, V domains shown)
VH: QITLKESGPTLVKPTQTLTLTCTFSGFSLSTSGVGVGWIRQPPGKALEWLALIYWDDDKHYSPSLKSRLTITKDTSKNQVVLTMTNMDPVDTATYYCAHMYYDILSGYYYGMDVWGQGTTVTVSS
VL: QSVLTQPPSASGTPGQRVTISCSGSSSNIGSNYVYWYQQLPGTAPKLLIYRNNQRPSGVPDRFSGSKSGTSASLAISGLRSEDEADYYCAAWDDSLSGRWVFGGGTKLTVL
B11: antibody 502 (antibody, V domains shown)
VH: QVQLVQSGAEVKKPGASVKVSCKASGYTFTSYYMHWVRQAPGQGLEWMGIINPSGGSTSYAQKFQGRVTMTRDTATSTVYMELSSLRSEDTAVYYCARGGGQISMIIVVMDDAFDIWGQGTMVTVSS
VL: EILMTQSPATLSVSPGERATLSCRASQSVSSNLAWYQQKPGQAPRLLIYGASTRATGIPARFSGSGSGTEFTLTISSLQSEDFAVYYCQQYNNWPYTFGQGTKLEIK
B12: antibody 506 (antibody, V domains shown)
VH: QITLKESGPTLVKPTQTLTLTCTFSGFSLSTSGVGVGWIRQPPGKALEWLALIYWDDDKRYSPSLKSRLTITKDTSKNQVVLTMTNMDPVDTATYYCAHHSLSSIFDYWGQGTLVTVSS
VL: QSALTQPASVSGSPGQSITISCTGTSSDVGDYNYVSWYQQHPGKAPKLMIYEVSNRPSGVSNRFSGSKSGNTASLTISGLQAEDEADYYCSSYTSSSTVFGGGTKLTVLG
B13: antibody 380 (antibody, V domains shown)
VH: QVQLVESGGGVVQPGRSLRLSCAASGFTLKNYGMHWVRQAPGKGLEWVIVLSFDGSDEYKADSVRGRFTVSRDNSKNTLFLQMNSLRPDDTAVYYCAREQPTMIEGGRGPFDIWGQGTMVTVSS
VL: EVVMTQSPATLSVSPGDRATLSCRASQGVNSNLAWYQQKPGQAPRLLIYAASTRATGIPARFSASGSGTHFTLTISSLQSEDFAVYYCLQYNNWPPWTFGQGTKLEIK
B14: antibody 343 (antibody, V domains shown)
VH: QVQLVESGGDVVQPGTSLRLSCAASGFTFNNYGFHWVRQAPGKGLEWVALISSDGASTHYADSVKGRFTISRDSSVNTLYLQMNSLSLEDTAVYYCATGHCGTTCYYFDYWGQGTLVSVSS
VL: DIQVTQSPSYLSASVGDRVTITCRASQTISTFLQWYQQKVGKAPKLLIYAASTLQSGVPSRFSGSGSGTDFSLTISSLQPEDFATYYCQQSYSAPLSFGGGTKVEIK
B15: antibody 333 (antibody, V domains shown)
VH: QVHLVESGGGVVLPGRSLRLSCSASQFIFSNYDMHWVRQSPGMGLEWVAGISSDGSDKYYIDSVRGRFTISRDNAKNTLFLQMNSLTTEDTAVYSCAKGGGKFGQYWGRGTLVTVSS
VL: AIQMTQSPSSLSASVGDRVTITCRASQVIRNDLAWFQQKPGEAPNLLVYSASNLQSGVPSRFSGSGSGTDFTLTISSLQPEDFATYYCLQDYSYPYTFGQGTKLDMK
B16: antibody 351 (antibody, V domains shown)
VH: HVQLVESGGGVVQPGRSLRLSCAASGFISRNYGMEWVRQAPGQGLEWVAGIWYDGSKKYYADSVKGRFTISRDTSKNTLFLQMDSLRAEDTAVFYCATATKTFCGGDCPPGGMDVWGQGTTVTVST
VL: SYVLTQPPSVSVAPGKTAWITCVGNNIESESVHWYQQRPGQAPVLVIYYDSDRPSGIPERFFGSNSGNTATLTISRVEAGDEADYYCQVWDSNSDLMVFGGGTKLTVL
B17: antibody 332 (antibody, V domains shown)
VH: QVTLRESGPALVKPTQTLTLTCTFSGFSLSTSGMCVSWIRQPPGKALEWLALIDWDDDKYYSTSLKTRLTISKDTSKNQVVLTMTNMDPVDTATYYCARIHDDILTGYHYVDYWGQGTLVTVSS
VL: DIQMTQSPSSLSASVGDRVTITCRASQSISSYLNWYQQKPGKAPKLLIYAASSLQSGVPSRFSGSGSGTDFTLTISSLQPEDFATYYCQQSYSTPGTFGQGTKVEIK
B18: antibody 443 (antibody, V domains shown)
VH: QMRLEESGPGLVKPSETLSLTCTVAGGSITSSDYFWGWLRQSPGKGLEWIASTYHGGSIQYHPALKSRVTISVDASKNQISLRLSSVTAADTAVYYCARDRGDDGPMGTYYFDHWGQGALVTVSS
VL: QSVLTQPPSVSGAPGQSVTISCAGSSSNIGAGHDVHWYQQIPGTAPKLLICGNTNRPSGVPERFSGSRSGTSASLAITGLQAEDEAVYYCQSYDPSHVFFGTGTKLTVL
B19: antibody 434 (antibody, V domains shown)
VH: QVQLVQSGAEVKKPGASVQVSCKASGYTFSDYYIFWVRQAPGQGLEWMGCINPKSGGAIYAQRFQGRVTMTRDTSFNTAYMEMNRLGSDDTAVYYCVTRGPPDIAASGFAWHLDVWGQGTTVTVSS
VL: DIVMTQSPLSLPVTPGEPASISCRSSQSLLSSNGYNYLEWYLQKPGQSPQLLMYLGSNRASGVPDRFSGSGSGTDFTLKINRVEAEDVGVYYCMQALQTPLTFGGGTKVEIK

molecular target: T1, SARS-CoV-2 full length spike protein, V483A mutant, expressed on the surface of CHO cells (SARS-CoV-2, UniProt P0DTC2 14-1273); assay: not given

Binder | median fluorescence intensity, fold over isotype control
B1 | 1.01 fold over isotype

molecular target: T2, SARS-CoV-2 full length spike protein, V483A mutant, expressed on CHO cells (SARS-CoV-2, UniProt P0DTC2 14-1273); assay: not given

Binder | median fluorescence fold over isotype control
B2 | 8.92 fold over isotype
B3 | 7.51 fold over isotype
B4 | 9.21 fold over isotype
B5 | 8.16 fold over isotype

molecular target: SARS-CoV-2 full length spike protein, V367F mutant, expressed on CHO cells (SARS-CoV-2, UniProt P0DTC2 14-1273); assay: not given

Binder | median fluorescence intensity, fold over isotype control
B6 | 30.6 fold over isotype
B7 | 2.71 fold over isotype
B8 | 2.89 fold over isotype
B9 | 30 fold over isotype
B10 | 37.3 fold over isotype
B11 | 51.8 fold over isotype
B12 | 42.3 fold over isotype

molecular target: SARS-CoV-2 full length spike protein, D614G mutant, expressed on CHO cells (SARS-CoV-2, UniProt P0DTC2 14-1273); assay: not given

Binder | median fluorescence intensity, fold over isotype control
B6 | 7.54 fold over isotype
B7 | 3.99 fold over isotype
B8 | 14.3 fold over isotype
B9 | 46.1 fold over isotype
B10 | 68.3 fold over isotype
B11 | 77.3 fold over isotype
B12 | 69.5 fold over isotype

molecular target: T2, SARS-CoV-2 full length spike protein, …; assay: flow cytometry on CHO cells expressing spike V483A

Binder | binding result
B13 | no binding

molecular target: T1, SARS-CoV-2 full length spike protein, …; assay: flow cytometry, CHO cells expressing full-length spike V483A

Binder | binding result
B1 | no binding
B14 | no binding
B15 | no binding
B16 | no binding
B17 | no binding

molecular target: T3, SARS-CoV-2 full length spike protein, V483A mutant (SARS-CoV-2, UniProt P0DTC2 14-1273); assay: as above
T3 construct: also called SARS-CoV-2 V483A mutant

Binder | binding result
B18 | no binding
B19 | no binding
